T1: B7H3-hFc (UniProt Q5ZPR3 29-466, limits assumed)
T1 construct: Construct limits, linker and Fc not described; also called B7H3-hFc protein; not shown: human Fc (hFc)
T1 sequence (looked up): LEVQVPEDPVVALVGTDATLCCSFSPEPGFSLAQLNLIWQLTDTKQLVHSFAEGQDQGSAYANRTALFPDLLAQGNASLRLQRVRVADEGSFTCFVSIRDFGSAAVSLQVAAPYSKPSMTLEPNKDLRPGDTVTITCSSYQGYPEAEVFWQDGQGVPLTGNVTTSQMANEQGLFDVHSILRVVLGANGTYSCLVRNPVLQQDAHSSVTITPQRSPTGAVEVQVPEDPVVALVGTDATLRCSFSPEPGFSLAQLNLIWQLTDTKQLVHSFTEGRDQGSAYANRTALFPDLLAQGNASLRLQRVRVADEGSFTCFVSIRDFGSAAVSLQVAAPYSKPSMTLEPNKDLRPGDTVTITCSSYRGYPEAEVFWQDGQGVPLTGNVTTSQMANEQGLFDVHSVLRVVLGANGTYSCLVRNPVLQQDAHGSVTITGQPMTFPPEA

T2: B7H3 on the cell surface (PC9 cells; 293T-B7H3 cells) (UniProt Q5ZPR3 29-534, limits assumed)
T2 construct: whole, on cells; both carry B7H3 on the surface; also called Cell Surface B7H3; B7H3 protein in PC9 cells
T2 sequence (looked up): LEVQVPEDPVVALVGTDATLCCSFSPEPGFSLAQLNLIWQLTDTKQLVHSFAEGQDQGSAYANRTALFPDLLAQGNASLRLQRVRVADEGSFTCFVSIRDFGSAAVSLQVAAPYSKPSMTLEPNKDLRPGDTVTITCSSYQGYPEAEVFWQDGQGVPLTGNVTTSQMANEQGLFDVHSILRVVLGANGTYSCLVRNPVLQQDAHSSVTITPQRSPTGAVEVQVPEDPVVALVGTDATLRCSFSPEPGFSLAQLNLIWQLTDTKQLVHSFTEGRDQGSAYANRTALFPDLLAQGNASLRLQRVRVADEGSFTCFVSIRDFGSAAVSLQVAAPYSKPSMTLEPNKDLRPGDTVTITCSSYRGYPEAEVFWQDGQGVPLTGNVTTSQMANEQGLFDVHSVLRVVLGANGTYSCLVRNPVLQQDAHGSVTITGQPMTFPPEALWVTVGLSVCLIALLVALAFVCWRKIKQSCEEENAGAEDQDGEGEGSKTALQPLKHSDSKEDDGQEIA


Legend:
[1] = target: T1, B7H3-hFc; experiment: ELISA, B7H3-hFc coated plate, purified hybridoma antibody
Method: (1) Screening of B7H3-binding positive clones through ELISA: 50 μL of B7H3-hFc (final concentration: 2 μg/mL) was used to coat each well of a 96-well ELISA plate (Corning, Cat. No.: 9018), and incubated overnight at room temperature. After the ELISA plate was rinsed with washing buffer (PBS+0.05% Tween20) 3 times, blocking buffer (PBS+2% BSA (Sigma, Cat. No.: V90093)) was added and the ELISA plate was incubated at room temperature for 1 hour. The ELISA plate was rinsed with washing buffer 3 times; and hybridoma supernatant was added, and the ELISA plate was incubated at room temperature for 1 hour and rinsed 3 times. 100 μL of 10,000-fold diluted HRP-conjugated goat anti-mouse IgG secondary antibody (Thermo, Cat. No.: 31432) was added to each well, and the ELISA plate was incubated at room temperature for 1 hour in the dark and rinsed 3 times. 100 μL of TMB (Biocytogen, Cat. No.: ES-002) was added to each well, and the ELISA plate was incubated at room temperature for color development for 2 minutes, 100 μL of reaction terminating solution (2N H2SO4) was added to each well to terminate the color reaction, and an OD450 value of each well was read using a microplate reader (Tecan Spark). (2) Screening of B7H3-binding positive clones through FACS: 50 μL of the positive hybridoma supernatant or purified hybridoma antibody in the foregoing test was mixed with 50 μL of 293T-B7H3 cells (2×10⁵ cells/well), and a resulting mixture was added to a 96-well plate with a U-shaped bottom and left standing at 4° C. for 1 hour, the 96-well plate was rinsed with FACS buffer (PBS+3% FCS) and centrifuged twice, then 400-fold diluted PE-labeled goat anti-mouse secondary antibody (Biolegend, Cat. No.: 405307) was added, the 96-well plate was incubated at 4° C. for 30 minutes in the dark, rinsed with FACS buffer and centrifuged twice, and signal values of the cells in a PE channel were detected by using BD Accuri C6 flow cytometer. (3) Subcloning: Positive multiclonal hybridoma cells identified by ELISA and FACS were subcloned using the limiting dilution method. The subclones were further detected and screened using ELISA and FACS to obtain positive hybridoma monoclonal clones.
ELISA and FACS were conducted to detect the binding ability of purified antibody samples to B7H3. Results are shown in FIG. 1(a-b), FIG. 2(a-b) and Table 1.

[2] = target: T2, B7H3 on the cell surface (PC9 cells; …); experiment: FACS on cells carrying B7H3 (PC9 per FIG. 2; 293T-B7H3 per method)

| Binder | EC50 [1] [µg/mL] | EC50 [2] [µg/mL] |
| --- | --- | --- |
| 7F5 (antibody, mouse IgG1, V domains shown, Murine hybridoma antibody purified by protein A; also called B7H3 hybridoma monoclonal antibody 7F5) VH: EVQLQQSGAELVRPGALVKLSCKTSGFNIKAYYIHWVKQRPEQGLEWIGWIDPENGNTFYDPKFQGKASITADTSSNTAYLQLSSLTSEDAAVYYCTRSSTRLRPFDYWGQGTTLTVSS VL: DIVMTQAAFSNPVTLGTSASISCRSSKSLLHSNGITYLYWYLQKSGQSPQLLIYQMSNLASGVPDRFSSSGSGTDFTLRISRVEAEDVGVYYCAQNLELYTFGGGTKLEIK | 0.00576 | 0.197 |
| 2E10 (antibody, mouse IgG2a, V domains shown, Murine hybridoma antibody; also called B7H3 hybridoma monoclonal antibody 2E10) VH: EVQLQQSGPELVKPGASVKISCKTSGYTFTEYTMHWVKQSHGKNLEWIGGINTDNGGTTYSQKFKDKATLTVDRSSSTAYMVLRSLTSEDSAVYYCARSFNNYGPAWFAYWGQGALVTVSA VL: DIVMTQSHKFMSTSIGDRVSITCKASQDVRSAVAWYQQRPGQSPKLLIYWASTRHTGVPARFTGSGSGTDYTLTINNVQSEDLAGYFCQQYSSYFTFGGGTKLEKK | 0.0067 | 0.234 |
| 2F7 (antibody, mouse IgG2b, V domains shown, Murine hybridoma antibody; also called B7H3 hybridoma monoclonal antibody 2F7) VH: QVQLQQPGAELVKPGASVKLSCKASGYTFTSYYIYWLKQRPGQGLEWIGGIKPSNGDTNFNAKFMNKATLTVDKSSSTAYMQLSSLTSEDSAIYYCTRFFYGSPYDFDVWGAGTTVTVSS VL: NIVMTQSPKSMSMAVGERVTLTCKASENVDTHVSWYQQKPEQSPTLLMYGTSNRFTGVPDRFTGSGSATDFTLTISSVQAEDLADYHCGQSYRYPYTFGGGTKLEIK | 0.00278 | 0.177 |
| 13A2 (antibody, mouse IgG2b, V domains shown, Murine hybridoma antibody; also called B7H3 hybridoma monoclonal antibody 13A2) VH: EVQLQQSGPELVKPGASVKISCKTSGYTFTEYVMHWVKQRHGQSLEWIGGINPNTGGTTYNQKFEGKATLTVDKSSSSAYMEFRSLTSEDSAVYYCARRMPFGISAMDYWGQGTSVTVSS VL: QIVLTQSPAIMSASPGEKVTMTCSASSSVSYIHWFQQKSGTSPKRWISETSKLASGVPARFSGSGSGTSYSLTISSMGAEDAATYYCHQWISYPPTFGAGTKLELK | 0.00052 | 0.101 |
| 14B3 (antibody, mouse IgG1, V domains shown, Murine hybridoma antibody; also called B7H3 hybridoma monoclonal antibody 14B3) VH: QVQLQQSGPELVRPGVSVKISCKGSGYTFTDHAIHWVKQSHAKSLEWIGVINTYSGNTNFNQKLKGKATMTVDKSSSTAYMELARLTSEDSAIYYCARGAHSSGYPYWYFDVWGAGTTVTVSS VL: QIVLSQSPAILSASAGEKVTMTCRASSSVSYMHWYQQKPGSSPKPWIYATSNLASGVPARFSGSGSGTSYSLTISRVEAEDAATYYCQQWSTNPFTFGSGTKLEMK | 0.0091 | 0.248 |
| 9C8 (antibody, mouse IgG1, V domains shown, Murine hybridoma antibody; also called B7H3 hybridoma monoclonal antibody 9C8) VH: EVQLQQSGPELVKPGASVKISCKTSGYTFTEYTIHWVKQSHGKSLEWIGGINPNSGGTTYNLKFKGKATLTVDKSSSTVYMELRSLTSEDSAVYYCARKEGFFTTDYWGQGTTLTVSS VL: QTVLTQSPAIMSASPGEKVTMTCSASSSLSYIHWYRQKSGTSPKRWIYDTSNLATGVPVRFSGSGSGTSYSLTISSMEAEDAATYYCQQWHYNPPTFGGGTKLEIK | 0.0104 | 0.0861 |
| 5B6 (antibody, mouse IgG1, V domains shown, Murine hybridoma antibody; also called B7H3 hybridoma monoclonal antibody 5B6) VH: QVQLQQSGAELARPGASVKMSCKTSGYTFITYTIHWVKQRPGQGLEWIGYINPTSDYANFNQKFKDKATLTADKSSRTAYMQLSSLTSEDSAVYYCARWGTTVFQFYFDYWGQGTTLTVSS VL: QIVLSQSPAILSASPGEKVTMTCRASQSLSYINWYQLKPGSSPKPWIYATSSLQSGVPARFSGSASGTSYSLTISRVEAEDAATYFCQHWSSDPPTIGGGTKLEIK | 0.00493 | 0.0713 |
| 7C9 (antibody, mouse IgG1, V domains shown, Murine hybridoma antibody; also called B7H3 hybridoma monoclonal antibody 7C9) VH: EVQLQQSGTELVRPGALVKLSCKASALNIKDFYMHWVKQRPERGLEWIGWIDPDNGNTIYDPKFQGKASITADISSSTAYLQLSSLTSEDTAVYYCARSSTRQRPFDYWGQGTTLTVSS VL: DIVMTQSHKVMSTSVGDRVSITCKASQDVRTGVAWYQQKPGQSPKLLIYSAFYRYTGVPDRFTVSGSGADFTFTITSVQAEDLAVYYCQQYYSIPWTFGGGTKLEIK | 0.0099 | 0.103 |
| 2A9 (antibody, mouse IgG2b, V domains shown, Murine hybridoma antibody; also called B7H3 hybridoma monoclonal antibody 2A9) VH: EVQLQQSGPELVKPGASVKISCKTSGYTFTEYIMHWVKQSRGKSLEWIGGINPNSGGTTYNEKFKGKATLTVDKSASTAYMELRSLTSEDSAIYYCARRMPYWYFDVWGAGTTVTVSS VL: QIVLTQSPAIMSASPGEKVTMTCSASSSVSYIHWYRQKSGTSPKRWVYDTSKLASGVPARFSGSGSGTSYSLTISSMEAEDAATYYCQQWVSNPLTFGAGTKLELK | 0.00624 | 0.186 |
| 15A2 (antibody, mouse IgG1, V domains shown, Murine hybridoma antibody; also called B7H3 hybridoma monoclonal antibody 15A2) VH: QVQLQQSGPEVVKPGALVRISCKASGYTFTSYDINWVKQRPGQGLEWIGWIDPGDGSTKYNEKFKGKATLTADKSSSTAYMQFSSLTSENSAVYFCVRRGFDYWGQGTTLTVSS VL: QILLTQSPAIMSASPGEKVTMTCRTSSSVSYLHWFQQKPGSSPKLWIHDTSNLASGFPARFSGSGSGTSYSLIISSMEAEDAATYYCHQRSSYPWTFGGGTKLEIK | 0.00151 | 0.0062 |
| 7B7 (antibody, mouse IgG2b, V domains shown, Murine hybridoma antibody; also called B7H3 hybridoma monoclonal antibody 7B7) VH: EVKLVESGGGLVRPGGSLKLSCAASGFTFSSYAVSWVRQTPEKRLEWVASISGGGIYIYYPDSVKGRFTISRDNAKNNLYLQMNSLTPDDTALYYCARHGGAGYFDYWGQGTTLTVSS VL: DSLMTQSPASLSASVGETVTITCRGSESVHSYLAWYQQKQGKSPQLLVYNAKTLQSGVPSRFSGSGSGTQFSLRINSLQPEDFGTYYCQQHYGSPPWTFGGGTILEIK | 0.0097 | 0.179 |
| 7E6 (antibody, mouse IgG1, V domains shown, Murine hybridoma antibody; also called B7H3 hybridoma monoclonal antibody 7E6) VH: QVQLQQSGPELVRPGVSVKISCKGSGYTFTDYAMHWVKQSHAKSLEWIGVINSYYGNTHYNQKFKGKATMTVDKSSSTAYMELARLTSEDSAIYYCARAGGYSYGSSYRPDRFAYWGQGTLVIVSA VL: DIQMTQSPASQSASLGESVTITCLASQTIGTWLAWYQQKPGKSPQLLIYAATNLADGVPSRFSGSGSGTKFSFKISSLQAEDFVSYYCQQLYSTPYTFGGGTKLEIK | 0.00449 | 0.0526 |
| 2F12 (antibody, mouse IgG1, V domains shown, Murine hybridoma antibody; also called B7H3 hybridoma monoclonal antibody 2F12) VH: EVQLQQSGPELVKSGASVNISCKTSGYTFTENTMHWVKLSHGKSLEWIGGINPNNGGTTYNQKFKGKATLTVDKSSSTAYMELRSLTSEDSAVYYCARRGRWPPDWYFDVWGAGTTVTVSS VL: QIVLTQSPAIMSASPGEKVTMTCSASSSLSYMHWYQQKSGTSPKRWIYDTSKLASGVPARFSGSGSGTSYSLTISSMEAEDAATYYCQQWSSNPLTFGAGTKLELK | – | 0.217 |

Source: US20250276082A1 (INNOLAKE BIOPHARMA HANGZHOU, published 2025)
